In assay [1] the test system is NFκB-mediated transcription. The assay is described as follows: NFκB activation in an over-expression system. It counts as cell-based.
Assay [2] relates to cytosols from Jurkat T cells. The experiment in a line: apoptotic signaling cascade in cell-free system (Jurkat cell extracts), Western blot. Conditions: added to cytosols from Jurkat T cells. It counts as biochemical. As to the method:
The ability of the procaspase-8 cleavage fragment p41 (hereafter referred to as casp8p41) to initiate an apoptotic signaling cascade in a cell-free system was tested. The cell free system was used previously to reveal the signaling pathway used by HIV protease to initiate apoptosis.
Jurkat cells were purchased from ATCC (Rockville, Md.) and maintained in Dulbecco's Modified Eagle Medium (DMEM) or RPMI1640 (GIBCO) supplemented with 10% (v/v) FBS, 1% penicillin and streptomycin, and 2 mM L-glutamine. The cells were incubated at 37° C. in a humidified atmosphere containing 5% CO2 and 95% air. Jurkat cell extracts were prepared as described previously (Nie et al., Cell Death Differ., 9:1172-84 (2002)). Briefly, cells (0.5×10^6 cells/mL) were harvested by centrifugation at 16000×g for 5 minutes at 4° C. The cell pellet was washed twice with ice-cold PBS (pH 7.4), followed by a single wash with ice-cold caspase buffer (20 mM PIPES, 100 mM NaCl, 10 mM DTT, 1 mM EDTA, 0.1% CHAPS, 250 mM sucrose, pH 7.2). […] Polypeptide concentrations were determined using a BCA protein assay kit (Pierce Chemical Co., Rockford, Ill.), and the resultant suspension was incubated with either HIV protease or casp8p41 polypeptide. […]
Background: Immunoblotting shows a protein as a band on a membrane.

In a further assay the test system is HeLa cells. The assay is described as follows: transient expression in HeLa cells, TUNEL, active caspase-3 and Annexin-V staining. It counts as cell-based. Conditions: cells transfected with pEGFPC1casp8p41. As to the method:
The effect of transient expression of casp8p41 polypeptide in HeLa cells was investigated. HeLa cells were purchased from ATCC and maintained in Dulbecco's Modified Eagle Medium (DMEM; GIBCO) supplemented with 10% (v/v) FBS, 1% penicillin and streptomycin, and 2 mM L-glutamine. The cells were incubated at 37° C. in a humidified atmosphere containing 5% CO2 and 95% air. Exponentially growing cells were seeded at 2500-5000 cells/well in a 96-well plate. The cells were transfected with a DNA plasmid expressing GFP (pEGFPC1, BD Biosciences Clontech, Palo Alto, Calif.), or with a plasmid expressing casp8p41 polypeptide as a fusion to the C-terminus of GFP (pEGFPC1casp8p41) using Fugene 6 (2 μL per μg DNA), according to the manufacturer's protocol. […]
HeLa cells transfected with pEGFPC1 or pEGFPC1casp8p41 were analyzed by confocal microscopy following staining with DAPI to visualize cell nuclei and TUNEL staining to detect apoptosis. […]
Cells transfected with pEGFPC1 and pEGFPC1casp8p41 were also subjected to Annexin-V PE, active caspase-3, and TUNEL staining and analyzed for cell death by flow cytometry, gating specifically on GFP-positive cells. […] GFP and annexin-V PE double-positive cells were analyzed by flow cytometry at 30,000 events per sample. […]

Another assay has as its system primary human T cells. The experiment in a line: transfection of primary human T cells, viability by light scatter and apoptosis by TUNEL. Conditions: PBL from HIV-negative donors transfected with pcDNA3 HA casp8p41, compared with GSK3β control vector. It counts as cell-based. As to the method:
Primary human T cells were tested for their response to expression of casp8p41 polypeptide by transfecting cells with a vector encoding casp8p41 polypeptide, or with a control vector encoding glycogen synthase kinase 3β (GSK3β; Kim et al., J Biol Chem., 278:13995-14001 (2003)). PBL from HIV-negative donors were isolated and transfected with 2 μg/10×10^6 cells with pcDNA3 HA GSK3β (Ougolkov et al., Cancer Res., 65:2076-2081 (2005)) or pcDNA3 HA casp8p41 using nucleofectin (AMAXA, MD) and program U14. Transfected cells were analyzed for changes in viability by light scatter or for apoptosis by TUNEL staining.

The target in a further assay is T1, procaspase-8 (Homo sapiens, UniProt Q14790, A331P).
T1 construct: amino acids 355 and 356 were mutated in full-length caspase-8; made in house; host or cells: cell-free TNT Quick coupled transcription/translation system (Promega)
The experiment in a line: in vitro cleavage of 35S methionine-labeled procaspase-8, autoradiography and immunoblotting. It counts as biochemical. The following applies: 50 mM NaOAc (pH 4.9), 200 mM NaCl, 5 mM DTT, 10% glycerol. As to the method: The fusion polypeptide, Flag-procaspase-8-Myc, was prepared by TNTR Quick coupled transcription/translation systems (Promega, Madison, Wis.). Briefly, 1 μg of pcDNA3Flag-procaspase-8-Myc or pcDNA3Flag (as a control) was added to a 50 μL nuclease-free reaction mixture containing 40 μL of TNT Quick Master Mix and 1 μL of 1 mM […] methionine. The reaction was carried out at 30° C. for 90 minutes and stopped by adding 20 μg/mL of cycloheximide (CI-IX) and 200 μg/mL of RNase and incubating the mixture at 30° C. for 5 minutes. ^35S methionine-labeled Flag-procaspase-8-Myc fusion polypeptide was prepared by adding 40 μCi of ^35S methionine instead of 1 μL of 1 mM methionine. The reaction mixture was separated by SDS-PAGE on a 10-15% gel and visualized by autoradiography. […]
The ^35S methionine-labeled Flag-procaspase-8-Myc fusion polypeptide produced in vitro was incubated with HIV-1 protease purchased from Sachem Biosciences (King of Prussia, Pa.). […] After cleavage of ^35S methionine-labeled Flag-procaspase-8-Myc fusion polypeptide by HIV-1 protease, the products were analyzed by autoradiography (FIG. 1C, top) and immunoblotting using antibodies directed against the Flag (FIG. 1C, middle) and Myc (FIG. 1C, bottom) epitopes. […]

T1 sequence (Q14790 whole entry A331P): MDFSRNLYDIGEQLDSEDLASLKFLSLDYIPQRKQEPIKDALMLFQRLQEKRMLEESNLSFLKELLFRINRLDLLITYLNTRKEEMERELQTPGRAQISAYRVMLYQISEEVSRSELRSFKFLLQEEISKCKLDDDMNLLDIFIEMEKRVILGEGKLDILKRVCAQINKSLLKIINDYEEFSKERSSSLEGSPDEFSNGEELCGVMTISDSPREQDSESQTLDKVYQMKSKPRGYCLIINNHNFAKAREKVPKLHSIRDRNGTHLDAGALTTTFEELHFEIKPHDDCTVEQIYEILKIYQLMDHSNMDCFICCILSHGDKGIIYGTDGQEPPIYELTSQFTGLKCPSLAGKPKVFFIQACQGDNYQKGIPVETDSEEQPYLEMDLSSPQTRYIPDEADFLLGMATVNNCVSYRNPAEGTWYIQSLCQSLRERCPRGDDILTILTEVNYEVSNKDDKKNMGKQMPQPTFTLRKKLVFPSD

B1: caspase-8 polypeptide: full-length caspase-8 polypeptide, over-expressed (protein, UniProt Q14790 1-479, looked up)
chain: MDFSRNLYDIGEQLDSEDLASLKFLSLDYIPQRKQEPIKDALMLFQRLQEKRMLEESNLSFLKELLFRINRLDLLITYLNTRKEEMERELQTPGRAQISAYRVMLYQISEEVSRSELRSFKFLLQEEISKCKLDDDMNLLDIFIEMEKRVILGEGKLDILKRVCAQINKSLLKIINDYEEFSKERSSSLEGSPDEFSNGEELCGVMTISDSPREQDSESQTLDKVYQMKSKPRGYCLIINNHNFAKAREKVPKLHSIRDRNGTHLDAGALTTTFEELHFEIKPHDDCTVEQIYEILKIYQLMDHSNMDCFICCILSHGDKGIIYGTDGQEAPIYELTSQFTGLKCPSLAGKPKVFFIQACQGDNYQKGIPVETDSEEQPYLEMDLSSPQTRYIPDEADFLLGMATVNNCVSYRNPAEGTWYIQSLCQSLRERCPRGDDILTILTEVNYEVSNKDDKKNMGKQMPQPTFTLRKKLVFPSD
modifications: full-length
notes: full-length caspase-8 polypeptide, over-expressed
For the molecule B1, the NFκB activation entry in assay [1] is “increase NFκB activation”.

B2: casp8p41 polypeptide: procaspase-8 cleavage fragment p41 generated by HIV protease (SEQ ID NO:2) (protein, listed as Homo sapiens)
chain: MDFSRNLYDIGEQLDSEDLASLKFLSLDYIPQRKQEPIKDALMLFQRLQEKRMLEESNLSFLKELLFRINRLDLLITYLNTRKEEMERELQTPGRAQISAYRVMLYQISEEVSRSELRSFKFLLQEEISKCKLDDDMNLLDIFIEMEKRVILGEGKLDILKRVCAQINKSLLKIINDYEEFSKERSSSLEGSPDEFSNGEELCGVMTISDSPREQDSESQTLDKVYQMKSKPRGYCLIINNHNFAKAREKVPKLHSIRDRNGTHLDAGALTTTFEELHFEIKPHDDCTVEQIYEILKIYQLMDHSNMDCFICCILSHGDKGIIYGTDGQEPPIYELTSQFTGLKCPSLAGKPKVF
As to B2, the “apoptotic signaling: Bid cleavage, cytochrome c release, caspase-9 and PARP cleavage” value in assay [2] was “resulted in cleavage of Bid to p15 tBid, release of cytochrome c from the mitochondrial fraction into the cytosol, and cleavage of caspase-9 and PARP”. In addition, the “TUNEL positivity and active caspase-3 expression, flow cytometry gated on GFP-positive cells” value with HeLa cells is “induces TUNEL positivity and active caspase-3 expression”. Also, the NFκB activation result in assay [1] was “two-fold more than full-length caspase-8 polypeptide”. Moreover, the level of apoptosis result with primary human T cells is “induced a significantly greater level of apoptosis”.

B3: renin: another aspartyl protease (protein, UniProt P00797 67-406, looked up)
Renin: LTLGNTTSSVILTNYMDTQYYGEIGIGTPPQTFKVVFDTGSSNVWVPSSKCSRLYTACVYHKLFDASDSSSYKHNGTELTLRYSTGTVSGFLSQDIITVGGITVTQMFGEVTEMPALPFMLAEFDGVVGMGFIEQAIGRVTPIFDNIISQGVLKEDVFSFYYNRDSENSQSLGGQIVLGGSDPQHYEGNFHYINLIKTGVWQIQMKGVSVGSSTLLCEDGCLALVDTGASYISGSTSSIEKLMEALGAKKRLFDYVVKCNEGPTLPDISFHLGGKEYTLTSADYVFQESYSSKKLCTLAIHAMDIPPPTGPTWALGATFIRKFYTEFDRRNNRIGFALAR
As for B3, the “cleavage of Flag-procaspase-8-Myc fusion polypeptide” value with procaspase-8 was “did not cause procaspase 8 cleavage”.
